Here are results for four variants from article PMC4738263 (Scientific Reports, 2016).

B1: His-tag-attached wild-type Hydrogenobacter thermophilus cytochrome c552, holo protein [modified: heme c attached (holo protein); heme c attached (holo protein)] [Hydrogenobacter thermophilus] / itself (parent)
chain: NEQLAKQKGCMACHDLKAKKVGPAYADVAKKYAGRKDAVDYLAGKIKKGGSGVWGSVPMPPQNVTDAEAKQLAQWILSIK

This experiment covers variants of B1. Briefly: Ni affinity chromatography (peak areas). The following applies: with itself, protein obtained from E. coli cells, read off a plot.

As to chain 1 I76V, the screen value is 5.5%. The screen value (parent: 27) was 19%. Besides, under “parent: 68”, the screen value is 75%.
As to chain 1 A5F M11V Y32F Y41E I76V, the screen value amounted to 6.2%. In addition, the screen value (parent: 27) came to 1.8%. For the same variant, where the note is “parent: 68”, the screen value is 92%.
The like results for chain 1 A5F M11V were, in that order, 3%, 14% and 83%.
The like results for chain 1 Y32F Y41E were, in that order, 13%, 11% and 76%.
